Laboratory results taken from publication PMC11524583, “Neurons enhance blood–brain barrier function via upregulating claudin-5 and VE-cadherin expression due to glial cell line-derived neurotrophic factor secretion” (eLife, 2024).
Several values for one entry are separate records, joined by “and”; a condition that tells them apart may be missing. Equal values may be shown once.

Legend:
p-p38/p38 = test: Western blot of p-p38/p38 in hCMEC/D3 cells; format: cell-based, Homo sapiens
Experimental: (§1) Whole-cell and tissue lysates, nucleoprotein, and cytoplasmic protein were prepared using RIPA Lysis Buffer (Beyotime, Shanghai, China) as the described method ([Wu et al., 2021]). Proteins were separated through sodium dodecyl sulfate–polyacrylamide gel electrophoresis and transferred onto nitrocellulose or polyvinylidene difluoride membranes. The membranes were blocked with 5% skim milk and incubated with corresponding primary antibodies at 4°C overnight. After being washed with Tris-buffered saline Tween buffer, the membranes were incubated with secondary antibodies (Cell Signaling Technology, MA, USA) at 1:3000 dilution: Anti-mouse IgG, HRP-linked Antibody (#7076), Anti-rabbit IgG, HRP-linked Antibody (#7074). Protein levels were visualized using a highly sensitive ECL western blotting substrate and a gel imaging system (Tanon Science & Technology, Shanghai, China).

VE-cadherin [1] = test: Western blot of VE-cadherin in primary rat brain microvascular endothelial cells; format: cell-based; conditions: primary rat BMECs, 200 pg/ml GDNF or US-CM
Experimental: (§2) Then, hCMEC/D3, U251, and SH-SY5Y cells were cultured in DMEM/F12 containing 10% FBS, 62.5 µg/ml penicillin and 100 µg/ml streptomycin. Cell viability was assessed using a CCK-8 kit (Beyotime Biotechnology, Shanghai, China), and the results were expressed as the fold of control.
as §1

VE-cadherin [2] = test: Western blot of VE-cadherin expression in hCMEC/D3 cells; format: cell-based, Homo sapiens
Method in brief: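 hCMEC/D3 cells were cultured 6 days in 200 pg/ml GDNF or U251/SH-SY5Y co-culture conditioned medium, ±0.25–1.0 μg/ml anti-GDNF antibody, with medium changed every 24 hr. Alternatively, cells got 10 nM FOXO1, ETS1 or CDH5 siRNA for 12 hr, then GDNF medium for 72 hr. RIPA lysates were immunoblotted with ECL detection.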

claudin-5 = test: Western blot of claudin-5 in primary rat brain microvascular endothelial cells; format: cell-based; conditions: primary rat BMECs, 200 pg/ml GDNF or US-CM
Experimental: as §2, §1

[3] = relative to Con (mean 1.000), mean of 4, Figure 3D
[4] = relative to Con (mean 1.000), single replicates, Figure 3D
[5] = relative to Con, single replicate (Figure 2J)

B1: GDNF: glial cell line-derived neurotrophic factor, recombinant protein (R&D system) (protein, UniProt P39905 78-211, looked up)
Glial cell line-derived …: SPDKQMAVLPRRERNRQAAAANPENSRGKGRRGQRGKNRGCVLTAIHLNVTDLGLGYETKEELIFRYCSGSCDAAETTYDKILKNLSRNRRLVSDKVGQACCRPIAFDDDLSFLDDNLVYHILRKHSAKRCGCI
phosphorylation of p38 (p-p38/p38; hCMEC/D3 cells, 200 pg/ml GDNF): did not stimulate
p-p38/p38 Relative Expression Mean (p-p38/p38; [3]): 0.924
p-p38/p38 Relative Expression (p-p38/p38; [4]): 0.949 and 0.886 and 0.913 and 0.946
VE-cadherin/β-actin Relative Expression, Mean (VE-cadherin [1]; Con = 1.000 (Figure 2J)): 1.773
VE-cadherin/β-actin Relative Expression (VE-cadherin [1]; [5]): 2.095 and 1.692 and 1.731 and 1.576
VE-cadherin/β-actin Relative Expression, Mean (VE-cadherin [2]; 50pg, Figure 2D, Con = 1.000): 1.451
VE-cadherin/β-actin Relative Expression (VE-cadherin [2]; 50pg, Figure 2D, relative to Con, single replicates): 1.462 and 1.352 and 1.497 and 1.494
VE-cadherin/β-actin Relative Expression, Mean (VE-cadherin [2]; 100pg, Figure 2D, Con = 1.000): 1.603
VE-cadherin/β-actin Relative Expression (VE-cadherin [2]; 100pg, Figure 2D, relative to Con, single replicates): 1.56 and 1.556 and 1.562 and 1.733
VE-cadherin/β-actin Relative Expression, Mean (VE-cadherin [2]; 200pg, Figure 2D, Con = 1.000): 1.795
VE-cadherin/β-actin Relative Expression (VE-cadherin [2]; 200pg, Figure 2D, relative to Con, single replicates): 1.847 and 2.268 and 1.408 and 1.657
VE-cadherin/β-actin Mean (VE-cadherin [2]; Figure 2K, hCMEC/D3 cells, group mean, relative to Con): 1.787
VE-cadherin/β-actin Relative Expression (VE-cadherin [2]; Figure 2K, hCMEC/D3 cells, individual replicates, relative to Con): 2.089 and 1.381 and 1.914 and 1.765
VE-cadherin/β-actin Relative Expression, Mean (VE-cadherin [2]; Figure 5G, hCMEC/D3 cells, group mean, NC = 1.000): 1.370
VE-cadherin/β-actin Relative Expression (VE-cadherin [2]; Figure 5G, hCMEC/D3 cells, single replicates, relative to NC group): 1.534 and 1.457 and 1.274 and 1.216
VE-cadherin expression (VE-cadherin [2]; hCMEC/D3 cells incubated with conditioned medium or neurotrophic factor vs normal medium): induced the expression of claudin-5 and VE-cadherin in a concentration-dependent manner
VE-cadherin/β-actin Relative Expression, Mean (VE-cadherin [2]; relative to Con (mean 1.000), mean of 4, Figure 3A): 1.424
VE-cadherin/Tubulin Relative Expression Mean (VE-cadherin [2]; relative to Con (mean 1.000), mean of 4, Figure 3B): 1.899
VE-cadherin/β-actin Relative Expression, Mean (VE-cadherin [2]; relative to Con (mean 1.000), mean of 4, Figure 3C): 1.775
VE-cadherin/Tubulin Relative Expression Mean (VE-cadherin [2]; [3]): 1.478
VE-cadherin/β-actin Relative Expression (VE-cadherin [2]; relative to Con (mean 1.000), single replicates, Figure 3A): 1.437 and 1.554 and 1.424 and 1.283
VE-cadherin/Tubulin Relative Expression (VE-cadherin [2]; relative to Con (mean 1.000), single replicates, Figure 3B): 1.415 and 1.823 and 2.246 and 2.110
VE-cadherin/β-actin Relative Expression (VE-cadherin [2]; relative to Con (mean 1.000), single replicates, Figure 3C): 1.887 and 1.656 and 1.568 and 1.989
VE-cadherin/Tubulin Relative Expression (VE-cadherin [2]; [4]): 1.343 and 1.350 and 1.787 and 1.430
Claudin-5/β-actin Relative Expression, Mean (claudin-5; Con = 1.000 (Figure 2J)): 1.469
Claudin-5/β-actin Relative Expression (claudin-5; [5]): 1.317 and 1.479 and 1.586 and 1.495
